Data published in article PMC12102759 (2025).

B1: AXIN1 peptide 235-250 (Axin-1), 16-mer library wild type / PP2A B56 (PPP2R5A B56 domain, residues 1-486) (parent complex)
chain 1: SGYLPTLNEDEEWKAD
chain 2: not shown
B2: SH3BP2 peptide 410-425 (SH3 domain-binding protein 2), 16-mer library wild type / TNKS ANK (TNKS 12 ANK repeats, residues 174-649) (parent complex)
chain 1: LPHLQRSPPDGQSFRS
chain 2: TGVPAVSGALRELLEACRNGDVSRVKRLVDAANVNAKDMAGRKSSPLHFAAGFGRKDVVEHLLQMGANVHARDDGGLIPLHNACSFGHAEVVSLLLCQGADPNARDNWNYTPLHEAAIKGKIDVCIVLLQHGADPNIRNTDGKSALDLADPSAKAVLTGEYKKDELLEAARSGNEEKLMALLTPLNVNCHASDGRKSTPLHLAAGYNRVRIVQLLLQHGADVHAKDKGGLVPLHNACSYGHYEVTELLLKHGACVNAMDLWQFTPLHEAASKNRVEVCSLLLSHGADPTLVNCHGKSAVDMAPTPELRERLTYEFKGHSLLQAAREADLAKVKKTLALEIINFKQPQSHETALHCAVASLHPKRKQVTELLLRKGANVNEKNKDFMTPLHVAAERAHNDVMEVLHKHGAKMNALDTLGQTALHRAALAGHLQTCRLLLSYGSDPSIISLQGFTAAQMGNEAVQQILSESTPIRTSD

Variants of: B1
Test: proteomic peptide phage display deep mutational scan (ProP-PD DMS): M13 P8 16-mer library selected against immobilised GST-tagged bait for four days (rounds), NGS of the eluted pools per day and pseudo-replica; bait immobilised on MaxiSorp plates (10 µg), library pre-cleared on GST, 2 h binding at 4 °C, five washes; one round per day, days 1-4; value from days 2 and 3
In the case of chain 1 D16Y, the screen value is reported as 0.00243 average fractional NGS count over selection days 2 and 3 (reads of this peptide / all reads for the bait, averaged over …. In the case of chain 1 W13F, the screen value is reported as 0.000389 average fractional NGS count over selection days 2 and 3 (reads of this peptide / all reads for the bait, averaged over …. chain 1 W13M was tested, and the screen value was 0.000138 average fractional NGS count over selection days 2 and 3 (reads of this peptide / all reads for the bait, averaged over …. In the case of chain 1 W13Y, the screen value is reported as 0.000277 average fractional NGS count over selection days 2 and 3 (reads of this peptide / all reads for the bait, averaged over …. With chain 1 W13L the screen value was 0.000454 average fractional NGS count over selection days 2 and 3 (reads of this peptide / all reads for the bait, averaged over …. In the case of chain 1 D10H, the screen value is reported as 0.000355 average fractional NGS count over selection days 2 and 3 (reads of this peptide / all reads for the bait, averaged over …. chain 1 D10V was tested, and the screen value was 0.00335 average fractional NGS count over selection days 2 and 3 (reads of this peptide / all reads for the bait, averaged over …. With chain 1 D10M the screen value was 0.00104 average fractional NGS count over selection days 2 and 3 (reads of this peptide / all reads for the bait, averaged over …. With chain 1 D10T the screen value was 0.000731 average fractional NGS count over selection days 2 and 3 (reads of this peptide / all reads for the bait, averaged over …. In the case of chain 1 D10F, the screen value is reported as 0.000124 average fractional NGS count over selection days 2 and 3 (reads of this peptide / all reads for the bait, averaged over …. In the case of chain 1 D10L, the screen value is reported as 0.000595 average fractional NGS count over selection days 2 and 3 (reads of this peptide / all reads for the bait, averaged over …. For chain 1 D10A, the screen value was 0.00348 average fractional NGS count over selection days 2 and 3 (reads of this peptide / all reads for the bait, averaged over …. For chain 1 A15P, the screen value was 0.00074 average fractional NGS count over selection days 2 and 3 (reads of this peptide / all reads for the bait, averaged over …. With chain 1 A15N the screen value was 0.000145 average fractional NGS count over selection days 2 and 3 (reads of this peptide / all reads for the bait, averaged over …. For chain 1 A15S, the screen value was 0.000672 average fractional NGS count over selection days 2 and 3 (reads of this peptide / all reads for the bait, averaged over …. With chain 1 A15G the screen value was 0.000885 average fractional NGS count over selection days 2 and 3 (reads of this peptide / all reads for the bait, averaged over …. chain 1 A15Y was tested, and the screen value was 0.000791 average fractional NGS count over selection days 2 and 3 (reads of this peptide / all reads for the bait, averaged over …. In the case of chain 1 A15L, the screen value is reported as 0.00106 average fractional NGS count over selection days 2 and 3 (reads of this peptide / all reads for the bait, averaged over …. For chain 1 A15T, the screen value was 0.000294 average fractional NGS count over selection days 2 and 3 (reads of this peptide / all reads for the bait, averaged over …. chain 1 A15F was tested, and the screen value was 0.000658 average fractional NGS count over selection days 2 and 3 (reads of this peptide / all reads for the bait, averaged over …. For chain 1 A15W, the screen value was 0.000559 average fractional NGS count over selection days 2 and 3 (reads of this peptide / all reads for the bait, averaged over …. chain 1 A15M was tested, and the screen value was 0.00211 average fractional NGS count over selection days 2 and 3 (reads of this peptide / all reads for the bait, averaged over ….

Variants of: B2
Test: as above
For chain 1 L4A, the screen value was 0.00506 average fractional NGS count over selection days 2 and 3 (reads of this peptide / all reads for the bait, averaged over …. In the case of chain 1 P8L, the screen value is reported as 0.00187 average fractional NGS count over selection days 2 and 3 (reads of this peptide / all reads for the bait, averaged over …. chain 1 P8Y was tested, and the screen value was 0.000667 average fractional NGS count over selection days 2 and 3 (reads of this peptide / all reads for the bait, averaged over …. chain 1 P8I was tested, and the screen value was 0.00231 average fractional NGS count over selection days 2 and 3 (reads of this peptide / all reads for the bait, averaged over …. In the case of chain 1 P8E, the screen value is reported as 0.00169 average fractional NGS count over selection days 2 and 3 (reads of this peptide / all reads for the bait, averaged over …. For chain 1 P8Q, the screen value was 0.00268 average fractional NGS count over selection days 2 and 3 (reads of this peptide / all reads for the bait, averaged over …. With chain 1 P8A the screen value was 0.00935 average fractional NGS count over selection days 2 and 3 (reads of this peptide / all reads for the bait, averaged over …. In the case of chain 1 S13Q, the screen value is reported as 0.00224 average fractional NGS count over selection days 2 and 3 (reads of this peptide / all reads for the bait, averaged over …. For chain 1 S13T, the screen value was 0.00243 average fractional NGS count over selection days 2 and 3 (reads of this peptide / all reads for the bait, averaged over …. chain 1 S13D was tested, and the screen value was 0.00033 average fractional NGS count over selection days 2 and 3 (reads of this peptide / all reads for the bait, averaged over …. chain 1 S13M was tested, and the screen value was 0.00197 average fractional NGS count over selection days 2 and 3 (reads of this peptide / all reads for the bait, averaged over …. chain 1 S13L was tested, and the screen value was 0.00144 average fractional NGS count over selection days 2 and 3 (reads of this peptide / all reads for the bait, averaged over …. With chain 1 S13G the screen value was 0.00038 average fractional NGS count over selection days 2 and 3 (reads of this peptide / all reads for the bait, averaged over …. chain 1 S7P was tested, and the screen value was 0.00153 average fractional NGS count over selection days 2 and 3 (reads of this peptide / all reads for the bait, averaged over …. In the case of chain 1 S7E, the screen value is reported as 0.00893 average fractional NGS count over selection days 2 and 3 (reads of this peptide / all reads for the bait, averaged over …. In the case of chain 1 S7T, the screen value is reported as 0.00126 average fractional NGS count over selection days 2 and 3 (reads of this peptide / all reads for the bait, averaged over …. For chain 1 S7D, the screen value was 0.000477 average fractional NGS count over selection days 2 and 3 (reads of this peptide / all reads for the bait, averaged over …. In the case of chain 1 S7I, the screen value is reported as 0.000719 average fractional NGS count over selection days 2 and 3 (reads of this peptide / all reads for the bait, averaged over …. chain 1 S7K was tested, and the screen value was 0.00104 average fractional NGS count over selection days 2 and 3 (reads of this peptide / all reads for the bait, averaged over …. chain 1 Q12H was tested, and the screen value was 0.0118 average fractional NGS count over selection days 2 and 3 (reads of this peptide / all reads for the bait, averaged over …. In the case of chain 1 Q12I, the screen value is reported as 0.000382 average fractional NGS count over selection days 2 and 3 (reads of this peptide / all reads for the bait, averaged over …. With chain 1 Q12L the screen value was 0.00741 average fractional NGS count over selection days 2 and 3 (reads of this peptide / all reads for the bait, averaged over …. For chain 1 Q12K, the screen value was 0.000431 average fractional NGS count over selection days 2 and 3 (reads of this peptide / all reads for the bait, averaged over …. For chain 1 Q12N, the screen value was 0.00115 average fractional NGS count over selection days 2 and 3 (reads of this peptide / all reads for the bait, averaged over …. chain 1 Q12Y was tested, and the screen value was 0.000794 average fractional NGS count over selection days 2 and 3 (reads of this peptide / all reads for the bait, averaged over …. chain 1 F14W was tested, and the screen value was 0.00225 average fractional NGS count over selection days 2 and 3 (reads of this peptide / all reads for the bait, averaged over …. With chain 1 F14Y the screen value was 0.00865 average fractional NGS count over selection days 2 and 3 (reads of this peptide / all reads for the bait, averaged over …. With chain 1 D10E the screen value was 0.00381 average fractional NGS count over selection days 2 and 3 (reads of this peptide / all reads for the bait, averaged over …. In the case of chain 1 D10I, the screen value is reported as 0.000221 average fractional NGS count over selection days 2 and 3 (reads of this peptide / all reads for the bait, averaged over …. For chain 1 D10T, the screen value was 0.000156 average fractional NGS count over selection days 2 and 3 (reads of this peptide / all reads for the bait, averaged over …. With chain 1 P9G the screen value was 0.000695 average fractional NGS count over selection days 2 and 3 (reads of this peptide / all reads for the bait, averaged over …. For chain 1 Q5E, the screen value was 0.000543 average fractional NGS count over selection days 2 and 3 (reads of this peptide / all reads for the bait, averaged over …. For chain 1 Q5P, the screen value was 0.000217 average fractional NGS count over selection days 2 and 3 (reads of this peptide / all reads for the bait, averaged over …. For chain 1 Q5D, the screen value was 0.00109 average fractional NGS count over selection days 2 and 3 (reads of this peptide / all reads for the bait, averaged over …. For chain 1 Q5K, the screen value was 0.0003 average fractional NGS count over selection days 2 and 3 (reads of this peptide / all reads for the bait, averaged over …. For chain 1 Q5V, the screen value was 0.001 average fractional NGS count over selection days 2 and 3 (reads of this peptide / all reads for the bait, averaged over …. For chain 1 P2S, the screen value was 0.000402 average fractional NGS count over selection days 2 and 3 (reads of this peptide / all reads for the bait, averaged over …. In the case of chain 1 P2I, the screen value is reported as 0.000822 average fractional NGS count over selection days 2 and 3 (reads of this peptide / all reads for the bait, averaged over …. chain 1 P2V was tested, and the screen value was 0.00125 average fractional NGS count over selection days 2 and 3 (reads of this peptide / all reads for the bait, averaged over …. For chain 1 P2Q, the screen value was 0.000644 average fractional NGS count over selection days 2 and 3 (reads of this peptide / all reads for the bait, averaged over …. In the case of chain 1 P2N, the screen value is reported as 0.000461 average fractional NGS count over selection days 2 and 3 (reads of this peptide / all reads for the bait, averaged over …. With chain 1 L1P the screen value was 0.000357 average fractional NGS count over selection days 2 and 3 (reads of this peptide / all reads for the bait, averaged over …. In the case of chain 1 L1R, the screen value is reported as 0.000257 average fractional NGS count over selection days 2 and 3 (reads of this peptide / all reads for the bait, averaged over …. chain 1 L1T was tested, and the screen value was 0.0011 average fractional NGS count over selection days 2 and 3 (reads of this peptide / all reads for the bait, averaged over …. For chain 1 L1Q, the screen value was 0.00289 average fractional NGS count over selection days 2 and 3 (reads of this peptide / all reads for the bait, averaged over …. In the case of chain 1 L1M, the screen value is reported as 0.00036 average fractional NGS count over selection days 2 and 3 (reads of this peptide / all reads for the bait, averaged over …. With chain 1 R15N the screen value was 0.000839 average fractional NGS count over selection days 2 and 3 (reads of this peptide / all reads for the bait, averaged over …. chain 1 R15M was tested, and the screen value was 0.00237 average fractional NGS count over selection days 2 and 3 (reads of this peptide / all reads for the bait, averaged over …. In the case of chain 1 H3A, the screen value is reported as 0.000153 average fractional NGS count over selection days 2 and 3 (reads of this peptide / all reads for the bait, averaged over …. With chain 1 H3E the screen value was 0.000323 average fractional NGS count over selection days 2 and 3 (reads of this peptide / all reads for the bait, averaged over …. In the case of chain 1 H3P, the screen value is reported as 0.000298 average fractional NGS count over selection days 2 and 3 (reads of this peptide / all reads for the bait, averaged over …. chain 1 H3T was tested, and the screen value was 0.000309 average fractional NGS count over selection days 2 and 3 (reads of this peptide / all reads for the bait, averaged over …. For chain 1 H3L, the screen value was 0.000556 average fractional NGS count over selection days 2 and 3 (reads of this peptide / all reads for the bait, averaged over ….
